# Data published in article PMC6778522.
# Target: PRC2 catalytic core (EZH2-EED-SUZ12 VEFS) (UniProt Q15910;O75530;Q15022 1-746;1-441;545-726)
# Test: competition
# PRC2 catalytic core (EZH2-EED-SUZ12 VEFS), sequence (Q15910 whole entry, chain 1 of 3): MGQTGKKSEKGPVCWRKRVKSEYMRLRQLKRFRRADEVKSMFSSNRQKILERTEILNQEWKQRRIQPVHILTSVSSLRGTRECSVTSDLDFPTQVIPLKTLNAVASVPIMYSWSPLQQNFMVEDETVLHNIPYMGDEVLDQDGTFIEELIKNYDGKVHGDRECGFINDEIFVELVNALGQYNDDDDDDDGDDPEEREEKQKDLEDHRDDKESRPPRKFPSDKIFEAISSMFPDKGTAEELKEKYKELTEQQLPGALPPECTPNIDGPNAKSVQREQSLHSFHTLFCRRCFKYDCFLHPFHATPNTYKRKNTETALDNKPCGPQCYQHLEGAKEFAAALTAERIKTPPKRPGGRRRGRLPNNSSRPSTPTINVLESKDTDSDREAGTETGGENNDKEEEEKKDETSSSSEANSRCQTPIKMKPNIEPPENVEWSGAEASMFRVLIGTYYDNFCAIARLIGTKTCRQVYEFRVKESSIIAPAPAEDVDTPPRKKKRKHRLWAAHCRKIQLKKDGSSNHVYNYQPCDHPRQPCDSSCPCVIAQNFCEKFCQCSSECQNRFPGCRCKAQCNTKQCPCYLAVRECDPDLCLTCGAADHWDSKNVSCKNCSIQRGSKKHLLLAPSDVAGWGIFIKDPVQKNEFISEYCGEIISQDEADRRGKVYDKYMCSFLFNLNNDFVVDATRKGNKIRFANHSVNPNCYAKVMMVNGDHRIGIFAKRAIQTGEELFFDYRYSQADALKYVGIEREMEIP
# PRC2 catalytic core (EZH2-EED-SUZ12 VEFS), sequence (O75530 whole entry, chain 2 of 3): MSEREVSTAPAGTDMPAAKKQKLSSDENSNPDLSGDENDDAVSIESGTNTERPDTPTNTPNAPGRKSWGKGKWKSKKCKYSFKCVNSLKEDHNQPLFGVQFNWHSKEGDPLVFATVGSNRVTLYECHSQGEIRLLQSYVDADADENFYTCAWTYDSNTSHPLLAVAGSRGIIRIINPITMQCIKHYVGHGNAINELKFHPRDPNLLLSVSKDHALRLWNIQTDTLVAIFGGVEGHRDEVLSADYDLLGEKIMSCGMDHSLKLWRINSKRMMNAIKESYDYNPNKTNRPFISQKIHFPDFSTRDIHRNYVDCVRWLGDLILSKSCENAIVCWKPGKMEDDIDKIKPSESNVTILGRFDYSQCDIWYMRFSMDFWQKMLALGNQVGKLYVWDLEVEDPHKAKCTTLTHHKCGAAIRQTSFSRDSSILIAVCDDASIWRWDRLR
# PRC2 catalytic core (EZH2-EED-SUZ12 VEFS), sequence (Q15022 545-726, chain 3 of 3): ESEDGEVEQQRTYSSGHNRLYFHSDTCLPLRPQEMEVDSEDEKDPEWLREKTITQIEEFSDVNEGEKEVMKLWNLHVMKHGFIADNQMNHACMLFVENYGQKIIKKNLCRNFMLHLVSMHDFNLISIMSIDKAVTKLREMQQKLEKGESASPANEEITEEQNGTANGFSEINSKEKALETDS
binder,measurement,value
CGGGGGUGGGGGGUGGGGGUGGGU (structured_RNA) [PIM1 G4 RNA competitor],binding result,binds
